Data reported in US20200182883A1 (UNIVERSITY OF MARYLAND BALTIMORE, published 2020).

How the values were obtained:
[1] = target: T1, YU2 gp120 core, from which V1, V2, and V3 have been deleted (HIV-1 YU2, UniProt P35961 82-479); assay: ELISA, graded
T1 construct: domain: gp120 core; also called YU2 core; YU2-core

[2] = target: T2, HIV-1 IIIB p24 recombinant protein (HIV-1 IIIB); assay: SPR, mAb immobilized on a Protein A chip, 0-200 nM p24, room temperature
T2 construct: domain: p24

[3] = target: T1, YU2 gp120 core, from which V1, V2, and …; assay: ELISA, background-subtracted OD, mAb titrated

B1: N60P2.1 (antibody, V domains shown)
VH: RAQLVQSGPEVKKPGASVRISCAASGYTFVDSFIHWLRQAPGQGLEWIGWINPLRGGVNYSGRFQGRVAMTRNTFTETVYMDINGLTPDDTATYFCVRAPDSYDRGYDAWGQGTRVIVTS
VL: YIQVTQSPSTLSASIGDTVTITCRASEGWLAWYQQKPGKAPKLIIYKTSTLERGVPSRFSGSVSGADFTLTISGLQSDDFATYYCQKFEFFGQGTVVDMK
notes: they may be variable regions only
B1: no binding [1].

B2: N60P25.1 (antibody, V domains shown)
VH: QIELVQSGTEVKRPGASVRISCASSGYRFTNYFIHWVRQAPGRGLEWMGWMNPLHGGVNYSGRFQGRVTMTRDIYTETSFMVLSGLTSDDTAIYFCTRGRDGYDDGFHPWGQGTLVTVSA
VL: YVQSQSPSTLYASVGDKITITCRSSQSGWKAWYQQKPGKAPKLLIYKSSILETGVPSRFSGSDSGTEFTLTISSLQPDDFATYYCQHFETFGQGTRVQVR
notes: Kappa light chain; also called N6025.1
B2: no binding [1].

B3: N60P53 (antibody, V domains shown)
VH: QVQLQESGPGLVKPSQTLSLTCTVSGGSINSGGYFWTWIRQEPGKGLEWIGHVHSSGTTSYNPSLKSRLTISLDSSKNQFSLNLTSVTAADTAVYYCASQGRLGIGDYWGQGALVVVSS
VL: DIQMTQSPSSLSASVGDRVTITCRASQGVSHLVNWYQQKPGKAPKPLIYTVSSLHSGVPSRISGSGSETEFTLTISSLQPEDFATYYCQQTYSSPRTFGQGTRVDLK
notes: Anti-p24 mAb; they may be variable regions only; captured on Protein A chip in SPR; also called N6053
B3 showed a Kd [2] of 0.0399 nM, a koff [2] of 3.81e-05 s⁻¹ and a kon [2] of 954000 M⁻¹ s⁻¹.

B4: N60P23 (antibody, V domains shown)
VH: HVQLVQSGTEVKRPGASVRISCASSGYTFSNYFIHWVRQAPGRGLEWMGWMNPLRGAVNYSGKFQGRVTMTRDIYTETSFMVLSGLRSDDTAIYFCARGRDGYEYGFNPWGQGTLVTVSS
VL: CYVQTQSPSTLYASVGDRVTITCRSSQSGWKAWYQQKPGKAPKLLIYKSSTLESGVPSRFSGSDSGTEFNLTITSLQPDDFATYFCQHFETFGQGTRVEVR
notes: they may be variable regions only; Kappa light chain
B4: no binding (tested: 0.8 ug/ml) [3].
